The record followed here is patent US20140112915A1 (Novartis, published 2014).

As a reminder, the Kd is the free concentration of one partner at which half of the binding sites on the other are occupied at equilibrium, for simple one-to-one binding.

To fix the notation:
T1: Recombinant human IL-18 (human, UniProt Q14116 37-193)
T1 sequence: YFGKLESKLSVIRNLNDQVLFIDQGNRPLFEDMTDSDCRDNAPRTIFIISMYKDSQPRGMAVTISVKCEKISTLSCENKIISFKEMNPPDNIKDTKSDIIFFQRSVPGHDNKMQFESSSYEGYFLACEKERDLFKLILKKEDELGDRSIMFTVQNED

T2: Native human IL-18 (human, UniProt Q14116 37-193)
T2 sequence: T1 sequence

T3: Recombinant cynomolgus IL-18 (cynomolgus monkey, UniProt Q14116 37-193 (human entry))
T3 chain: T1 sequence with V11I, S50N, T63A, K79R, F134Y, E141K

B1: MOR10501 (antibody, human IgG1, lambda, L234A L235A, V domains shown)
VH: EVQLQESGPGLVKPGETLSLTCTVSGGSISTGSYYWNWIRQAPGKGLEWIGEIWHSGPTFYNPSLKSRVTISVDTSKNQFSLKLSSVTAADTAVYYCARTTRYWMSHILAYGMDYWGQGTLVTVSS
VL: DIVLTQPPSVSGAPGQRVTISCSGSSSNIGNHYVSWYQQLPGTAPKLLIYANTKRPSGVPDRFSGSKSGTSASLAITGLQSEDEADYYCSSYDGSQSIVFGGGTKLTVLG
notes: also called MOR010501
B2: MOR10502 (antibody, human IgG1, lambda, L234A L235A, V domains shown)
VH: B1 VH with W54H, H55G, S56H, P58F
VL: B1 VL
notes: also called MOR010502
B3: MOR10497 (antibody, human IgG1, lambda, L234A L235A, V domains shown)
VH: B1 VH with W54Q, H55S, S56P, P58Y
VL: B1 VL
notes: also called MOR010497
B4: MOR10222_E1Q_N30S_M54I (antibody, human IgG1, lambda, L234A L235A, V domains shown)
VH: QVQLVQSGAEVKKPGSSVKVSCKASGGTFSSYAISWVRQAPGQGLEWMGNIIPITGQTYYAQKFQGRVTITADESTSTAYMELSSLRSEDTAVYYCARAAYHPLVFDNWGQGTLVTVSS
VL: QSVLTQPPSASGTPGQRVTISCSGSSSNIGNHYVNWYQQLPGTAPKLLIYRNNHRPSGVPDRFSGSKSGTSASLAISGLQSEDEADYYCQSWDYSGFSTVFGGGTKLTVLG
B5: MOR9464_N30G (antibody, human IgG1, lambda, L234A L235A, V domains shown)
VH: B4 VH with Q1E, S30G, I54M
VL: B4 VL with Q1D, S2I, A10V, T13A, S77T
B6: MOR9464_N30I (antibody, human IgG1, lambda, L234A L235A, V domains shown)
VH: B4 VH with Q1E, S30I, I54M
VL: B4 VL with Q1D, S2I, A10V, T13A, S77T
B7: MOR9464_N30V (antibody, human IgG1, lambda, L234A L235A, V domains shown)
VH: B4 VH with Q1E, S30V, I54M
VL: B4 VL with Q1D, S2I, A10V, T13A, S77T
B8: MOR9464_N30R (antibody, human IgG1, lambda, L234A L235A, V domains shown)
VH: B4 VH with Q1E, S30R, I54M
VL: B4 VL with Q1D, S2I, A10V, T13A, S77T
B9: MOR9464_N30L (antibody, human IgG1, lambda, L234A L235A, V domains shown)
VH: B4 VH with Q1E, S30L, I54M
VL: B4 VL with Q1D, S2I, A10V, T13A, S77T
B10: MOR9464_N30Y (antibody, human IgG1, lambda, L234A L235A, V domains shown)
VH: B4 VH with Q1E, S30Y, I54M
VL: B4 VL with Q1D, S2I, A10V, T13A, S77T
B11: MOR13363 (antibody, human IgG1, kappa, L234A L235A, V domains shown)
VH: QVQLLESGGGLVQPGGSLRLSCAASGFTFSSYAIHWVRQAPGKGLEWVSVISGEGSNTYYADSVKGRFTISRDNSKNTLYLQMNSLRAEDTAVYYCARVMIGYGFDYWGQGTLVTVSS
VL: DIQMTQSPSSLSASVGDRVTITCRASQSIFNYLNWYQQKPGKAPKLLIYDSSTLQSGVPSRFSGSGSGTDFTLTISSLQPEDFATYYCLQYSGFLFTFGQGTKVEIKR
B12: MOR13341 (antibody, human IgG1, kappa, L234A L235A, V domains shown)
VH: QVQLVQSGAEVKKPGSSVKVSCKASGGTFSTFSISWVRQAPGQGLEWMGGIIPIFGTANYAQKFQGRVTITADESTSTAYMELSSLRSEDTAVYYCARGGYGGYYYFDYWGQGTLVTVSS
VL: B11 VL with F30S, Y32R, D50K, S51G, L89Q, Y91H, S92K, G93V, F94W, F96T
B13: MOR13361 (antibody, human IgG1, kappa, L234A L235A, V domains shown)
VH: B11 VH with V50T, S52Q, G53S, E54S, S56E, T58K, Y59F
VL: B11 VL with L89H, F94L

Positions count from the first letter of the chain named.

The target of one assay is T1, Recombinant human IL-18. Kind of assay: cell-based or functional assay.
On to B1, for which the “IC50, inhibition of IFN-γ release, human whole blood, recombinant human IL-18 (7 nM)” value (“IC50, inhibition of IFN-γ release … (7 nM)” for short) worked out at 20.3 nM.

For B2, the “IC50, inhibition of IFN-γ release … (7 nM)” value came to 17.9 nM.

For B3, the “IC50, inhibition of IFN-γ release … (7 nM)” value came to 16.1 nM.

On to B4, for which the “IC50, inhibition of IFN-γ release … (7 nM)” value was found to be 47.3 nM.

Consider B5, for which the “IC50, inhibition of IFN-γ release … (7 nM)” value was 25.1 nM.

For B6, the “IC50, inhibition of IFN-γ release … (7 nM)” value was 11.4 nM.

For the molecule B7, the “IC50, inhibition of IFN-γ release … (7 nM)” value is 12.7 nM.

Turning to B8, the “IC50, inhibition of IFN-γ release … (7 nM)” value was found to be 10.1 nM.

Turning to B9, the “IC50, inhibition of IFN-γ release … (7 nM)” value is 9.85 nM.

B10: the “IC50, inhibition of IFN-γ release … (7 nM)” value was found to be 12.4 nM.

B11: the “IC50, inhibition of IFN-γ release … (7 nM)” value was 29.4 nM.

For B12, the “IC50, inhibition of IFN-γ release … (7 nM)” value stood at 5.6 nM.

Take B13: the “IC50, inhibition of IFN-γ release … (7 nM)” value stood at 15.7 nM.

The target of the next assay is T2, Native human IL-18. Kind of assay: cell-based or functional assay.
As for B1, the “IC50, inhibition of IFN-γ release, human whole blood, LPS/IL-12 (native IL-18)” value (“IC50, inhibition … (native IL-18)” for short) came to 101 nM.

Consider B2, for which the “IC50, inhibition … (native IL-18)” value is 110 nM.

With B3, the “IC50, inhibition … (native IL-18)” value was found to be 108 nM.

Take B4: the “IC50, inhibition … (native IL-18)” value came out at 9.3 nM.

As to B5, the “IC50, inhibition … (native IL-18)” value was 15.1 nM.

For the molecule B6, the “IC50, inhibition … (native IL-18)” value is 13.2 nM.

Consider B7, for which the “IC50, inhibition … (native IL-18)” value was 19.6 nM.

Turning to B8, the “IC50, inhibition … (native IL-18)” value turned out to be 11 nM.

In the case of B9, the “IC50, inhibition … (native IL-18)” value stood at 15.5 nM.

As for B10, the “IC50, inhibition … (native IL-18)” value is 17.9 nM.

As to B11, the “IC50, inhibition … (native IL-18)” value was determined as 91.7 nM.

Turning to B12, the “IC50, inhibition … (native IL-18)” value worked out at 19.6 nM.

Regarding B13, the “IC50, inhibition … (native IL-18)” value is 39.4 nM.

The next assay has as its target T1, Recombinant human IL-18. Kind of assay: solution equilibrium titration (SET), ECL detection; human IL-18; unbracketed value, column Hu IL-18.
Description: (§1) Goat-anti-human (Fab)₂ fragment specific antibodies (Dianova) were labeled with MSD SULFO-TAG™ NHS-Ester (Meso Scale Discovery, Gaithersburg, Md., USA) according to the manufacturer's instructions. Experiments were carried out in polypropylene microtiter plates and phosphate-based assay buffer. Unlabeled human IL-18 was serially diluted, starting with a concentration at least 10 times higher than the expected KD. Wells without antigen were used to determine Bₘₐₓ values; wells with assay buffer were used to determine background. After addition of a constant amount of antibodies or fragment thereof (e.g. 10 pM final concentration in 60 μl final volume), the mixture was incubated over night at RT.
(§2) Streptavidin MSD plates were blocked with BSA-containing phosphate buffer over night. After blocking of the plate, biotinylated human IL-18 was added and incubated for 1 h at RT. Subsequently the equilibrated samples were transferred to those plates and incubated for a short time at RT. After washing, MSD SULFO-TAG labeled detection antibody (goat anti-human (Fab)₂) was added to the MSD plate and incubated for a short time at RT.
(§3) Where IL-18 from cynomolgus monkey (cm IL-18) was also tested, the resulting KD are indicated in brackets.
In the case of B4, the Kd stood at 0.003 nM.

With B11, the Kd came to 0.01 nM.

Turning to B12, the Kd amounted to 0.003 nM.

For B13, the Kd came out at 0.007 nM.

The next assay addresses T3, Recombinant cynomolgus IL-18. Kind of assay: cell-based or functional assay.
For the molecule B1, the “IC50, inhibition of IFN-γ release, KG-1 cells, Cyno IL-18” value turned out to be 0.2 nM.

Regarding B2, the “IC50, inhibition of IFN-γ release, KG-1 cells, Cyno IL-18” value was 0.2 nM.

Take B3: the “IC50, inhibition of IFN-γ release, KG-1 cells, Cyno IL-18” value came to 0.3 nM.

In the case of B4, the “IC50, inhibition of IFN-γ release, KG-1 cells, Cyno IL-18” value was determined as 8.12 nM.

For B11, the “IC50, inhibition of IFN-γ release, KG-1 cells, Cyno IL-18 (0.2 nM)” value (“IC50, inhibition of IFN-γ release … (0.2 nM)” below) amounted to 0.28 nM.

Consider B12, for which the “IC50, inhibition of IFN-γ release … (0.2 nM)” value came out at 2.8 nM.

As to B13, the “IC50, inhibition of IFN-γ release … (0.2 nM)” value worked out at 0.13 nM.

Another assay concerns the target T1, Recombinant human IL-18. Kind of assay: cell-based or functional assay. This is another data set of the same source.
Regarding B1, the “IC50, inhibition of IFN-γ release, KG-1 cells, Hu IL-18 (1 nM)” value (“IC50, inhibition of IFN-γ release … (1 nM)” below) stood at 0.3 nM and the “IC50, inhibition of IFN-γ release, PBMC, Hu IL-18 (recombinant)” value (from here on “IC50, inhibition … (recombinant)”) was 6.3 nM.

Turning to B2, the “IC50, inhibition of IFN-γ release … (1 nM)” value worked out at 0.4 nM and the “IC50, inhibition … (recombinant)” value was found to be 6.3 nM.

In the case of B3, the “IC50, inhibition of IFN-γ release … (1 nM)” value was determined as 0.3 nM and the “IC50, inhibition … (recombinant)” value came out at 5.8 nM.

As to B4, the “IC50, inhibition of IFN-γ release … (1 nM)” value worked out at 4.21 nM.

With B11, the “IC50, inhibition of IFN-γ release, KG-1 cells, Hu IL-18 (0.5 nM)” value (shortened to “IC50, inhibition of IFN-γ release … (0.5 nM)”) came to 0.49 nM.

With B12, the “IC50, inhibition of IFN-γ release … (0.5 nM)” value was determined as 0.13 nM.

For the molecule B13, the “IC50, inhibition of IFN-γ release … (0.5 nM)” value stood at 0.41 nM.

The next assay has as its target T2, Native human IL-18. Briefly: cell-based or functional assay. The source holds these as a separate data set.
Consider B1, for which the “IC50, inhibition of IFN-γ release, PBMC, Native IL-18 (LPS/IL-12)” value (from here on “IC50, inhibition … (LPS/IL-12)”) amounted to 1.3 nM.

With B2, the “IC50, inhibition … (LPS/IL-12)” value stood at 2.3 nM.

For B3, the “IC50, inhibition … (LPS/IL-12)” value was determined as 1.8 nM.

Regarding B4, the “IC50, inhibition … (LPS/IL-12)” value is 0.05 nM.

Take B11: the “IC50, inhibition … (LPS/IL-12)” value is 0.18 nM.

With B12, the “IC50, inhibition … (LPS/IL-12)” value came to 0.8 nM.

For B13, the “IC50, inhibition … (LPS/IL-12)” value is 0.5 nM.

In the next assay the target is T1, Recombinant human IL-18. Briefly: solution equilibrium titration (SET), ECL detection.
Description: as §1, §2, §3
For the molecule B1, the equilibrium dissociation constant (Kd) was found to be 0.001 nM.

Regarding B2, the Kd is 0.004 nM.

For the molecule B3, the Kd amounted to 0.002 nM.

The next assay concerns the target T3, Recombinant cynomolgus IL-18. Kind of assay: solution equilibrium titration (SET), ECL detection; value in brackets = cynomolgus IL-18; bracketed value.
Description: as §1, §2, §3
As for B4, the Kd turned out to be 0.03 nM.

Consider B11, for which the Kd was found to be 0.01 nM.

Take B12: the Kd was 0.03 nM.

Regarding B13, the Kd stood at 0.006 nM.

The target in a further assay is T1, Recombinant human IL-18. Briefly: cell-based or functional assay. This is another data set of the same source.
For the molecule B4, the “IC50, inhibition of IFN-γ release … (1 nM)” value was 4.2 nM.

As for B5, the “IC50, inhibition of IFN-γ release … (1 nM)” value came out at 0.54 nM.

Take B6: the “IC50, inhibition of IFN-γ release … (1 nM)” value was found to be 0.32 nM.

For the molecule B7, the “IC50, inhibition of IFN-γ release … (1 nM)” value is 0.29 nM.

Regarding B8, the “IC50, inhibition of IFN-γ release … (1 nM)” value was 0.47 nM.

With B9, the “IC50, inhibition of IFN-γ release … (1 nM)” value was 0.23 nM.

Take B10: the “IC50, inhibition of IFN-γ release … (1 nM)” value was 0.23 nM.

The target in a further assay is T2, Native human IL-18. Kind of assay: cell-based or functional assay. The source holds these as a separate data set.
For B4, the “IC50, inhibition … (LPS/IL-12)” value came to 0.05 nM.

On to B5, for which the “IC50, inhibition … (LPS/IL-12)” value was 0.11 nM.

With B6, the “IC50, inhibition … (LPS/IL-12)” value is 0.11 nM.

B7: the “IC50, inhibition … (LPS/IL-12)” value was 0.11 nM.

Regarding B8, the “IC50, inhibition … (LPS/IL-12)” value came out at 0.04 nM.

Regarding B9, the “IC50, inhibition … (LPS/IL-12)” value was 0.05 nM.

Consider B10, for which the “IC50, inhibition … (LPS/IL-12)” value amounted to 0.03 nM.
